Data reported in patent US20100029568A1, “TIGHTER-BINDING C-PEPTIDE INHIBITORS OF HIV-1 ENTRY” (priority 2007, published 2010).

Experiments:
[1] = biological target: Res 4 (SDTV) Env from HIV-1 strain HXB2 (HIV-1 strain HXB2) (UniProt P04578); assay: cell-based or functional assay
[2] = biological target: wild type Env (gp120/gp41) from HIV-1 strain HXB2 (HIV-1 strain HXB2) (UniProt P04578); assay: cell-based or functional assay

For T20 (peptide), the IC50, nM; inhibitory potency against pseudotyped HIV-1 [1] was 900 nM and the IC50, nM; inhibitory potency against pseudotyped HIV-1 [2] was 2.3 nM.
